B1: LINE1-mini (parent)
chain: GGCAGAGCUCAACACAGCGUGGCAAAGUGGCUGUGGCUAGACUGCC

Variants of: B1
Assay: self-cleavage, relative activity (ratio to wild type); higher = more cleavage; in vitro, sequencing; the parent is a self-cleaving ribozyme

G5A C13A and G22U G36A are the same in self-cleavage: 0.15 for the first, 0.15 for the second.

Compared with G30A G40A, G7U C46G is lower in self-cleavage: 0.19 for the first, 0.09 for the second.

Going from G17A G21A to G1C C46G, the self-cleavage rises from 0.22 to 0.3.

First: C3U A25U
Second: C15U G35A
The self-cleavage of the first is higher: 0.52 for the first, 0.09 for the second.

A14G C31A and C15G U20A are the same in self-cleavage: 0.09 for the first, 0.09 for the second.

Compared with C31G U32A, C10G C37A is lower in self-cleavage: 0.05 for the first, 0.01 for the second.

Going from A11C G30A to A11C A12G, the self-cleavage falls from 0.08 to 0.04.

Going from A16C A26G to C3G G7C, the self-cleavage rises from 0.02 to 0.05.

Compared with C18A G29U, G5C A24C is lower in self-cleavage: 1.07 for the first, 0.04 for the second.

Compared with U9A A39G, C37U C42A is lower in self-cleavage: 0.21 for the first, 0.12 for the second.

Going from U28C C46U to A6C A16U, the self-cleavage falls from 0.51 to 0.09.

First: G7C A25G
Second: C3U C13G
The self-cleavage of the first is lower: 0.06 for the first, 0.14 for the second.

Going from U20C U38G to C3G C42U, the self-cleavage rises from 0.01 to 0.31.

Compared with A25U U34G, A25C G33A is lower in self-cleavage: 0.16 for the first, 0.05 for the second.

First: G19U G21A
Second: G5U A14U
The self-cleavage of the first is higher: 0.64 for the first, 0.07 for the second.

Going from G5A C31G to A24C C42A, the self-cleavage rises from 0.05 to 0.15.

Going from A12U G35C to C10G A26C, the self-cleavage rises from 0.05 to 0.11.

Going from A4C G40A to A4C C23G, the self-cleavage rises from 0.16 to 0.23.

First: C15A C18G
Second: A24G A25U
The self-cleavage of the first is lower: 0.09 for the first, 1.3 for the second.

Compared with G2C, C15U A41G is higher in self-cleavage: 0.13 for the first, 0.25 for the second.

Compared with A4G A12U, C8G G44C is lower in self-cleavage: 0.11 for the first, 0.05 for the second.

Going from G2A A25C to G1A G5C, the self-cleavage falls from 0.62 to 0.08.

First: U20A U28A
Second: U9G C13A
The self-cleavage of the first is higher: 0.55 for the first, 0.19 for the second.

Compared with G22C G29C, A4C G30U is lower in self-cleavage: 0.27 for the first, 0.19 for the second.

Going from C31U C42G to G7A A25G, the self-cleavage rises from 0.04 to 0.12.

Going from G7U G22U to A14C G17U, the self-cleavage rises from 0.14 to 0.28.

Compared with A16U C42G, A26U C42U is higher in self-cleavage: 0.07 for the first, 0.08 for the second.

Compared with G5C C45A, A14U C46A is higher in self-cleavage: 0.05 for the first, 0.4 for the second.

First: G5A G36C
Second: A25G U43A
The self-cleavage of the first is lower: 0.05 for the first, 0.13 for the second.

Going from U32A C42G to G21C G30C, the self-cleavage rises from 0.06 to 1.62.

Going from U9G C46U to G36C A41U, the self-cleavage rises from 0.11 to 0.14.

Going from C10A C46A to A4G G19C, the self-cleavage rises from 0.05 to 0.23.

First: A12G G35A
Second: G22C C42A
The self-cleavage of the first is lower: 0.02 for the first, 0.13 for the second.

Compared with A14U G30U, C13G G21A is higher in self-cleavage: 0.19 for the first, 0.38 for the second.

Compared with A11U A39G, C3U C23G is higher in self-cleavage: 0.06 for the first, 0.46 for the second.

First: A12C
Second: G1A A26G
The self-cleavage of the first is lower: 0.03 for the first, 1.58 for the second.

First: C3A C23U
Second: G7A C18U
The self-cleavage of the first is higher: 0.71 for the first, 0.12 for the second.

First: G22A C46U
Second: A26G C46U
The self-cleavage of the first is higher: 0.84 for the first, 0.58 for the second.

Going from G27A C42U to C10U C45A, the self-cleavage falls from 0.26 to 0.15.

Compared with U32A A41C, G19U A25U is higher in self-cleavage: 0.07 for the first, 0.67 for the second.

Going from G22U A39C to G19A U38C, the self-cleavage rises from 0.14 to 1.09.

Going from G1U G44A to C18A C45G, the self-cleavage rises from 0.11 to 0.14.

First: C10A C15G
Second: A12U C13U
The self-cleavage of the first is lower: 0.04 for the first, 0.14 for the second.

Compared with C8U A24C, A26U U32G is higher in self-cleavage: 0.24 for the first, 0.36 for the second.

Going from G7C G30C to G1U C46A, the self-cleavage rises from 0.13 to 0.53.

C31A A41G and A26U C37U are the same in self-cleavage: 0.08 for the first, 0.08 for the second.

First: G7U C42A
Second: C10U U32A
The self-cleavage of the first is lower: 0.06 for the first, 0.08 for the second.

Compared with A11U C45U, A4G A24C is higher in self-cleavage: 0.23 for the first, 0.25 for the second.

First: A14C C23A
Second: C31G C37A
The self-cleavage of the first is higher: 0.21 for the first, 0.09 for the second.

First: G33A G36C
Second: U9G A24C
The self-cleavage of the first is lower: 0.05 for the first, 0.07 for the second.

First: C10U G22C
Second: G33U C37U
The self-cleavage of the first is higher: 0.18 for the first, 0.06 for the second.

Going from G5U G30C to C13G G22U, the self-cleavage rises from 0.05 to 0.18.

Going from C13U G30A to G30C U32C, the self-cleavage falls from 0.15 to 0.09.

Going from C23G A25C to A6U U32G, the self-cleavage falls from 0.69 to 0.13.

Going from C23U C37G to G22U C45U, the self-cleavage rises from 0.02 to 1.25.

Compared with C3U A16G, C18U U20C is higher in self-cleavage: 0.16 for the first, 0.98 for the second.

Going from C23U C37A to C3A U43C, the self-cleavage rises from 0.04 to 0.28.

First: U20C C46U
Second: A4U G17C
The self-cleavage of the first is higher: 0.42 for the first, 0.06 for the second.

Going from C15U G17A to G1C G5A, the self-cleavage falls from 0.07 to 0.05.

First: U32G U38A
Second: C15U
The self-cleavage of the first is lower: 0.07 for the first, 1.03 for the second.

A24U G33U and A26G U34C are the same in self-cleavage: 0.08 for the first, 0.08 for the second.

Compared with G30C G44U, A24G G40C is higher in self-cleavage: 0.09 for the first, 0.18 for the second.

Compared with A4C G29A, G7A G21A is higher in self-cleavage: 0.07 for the first, 0.34 for the second.

First: A16C G22C
Second: G2U G40U
The self-cleavage of the first is higher: 0.09 for the first, 0.04 for the second.

Compared with G2U A14U, G27U C31G is higher in self-cleavage: 0.04 for the first, 0.21 for the second.

Compared with G7C C8A, G5U C31A is lower in self-cleavage: 0.32 for the first, 0.04 for the second.

First: G30U C46U
Second: G27A C46A
The self-cleavage of the first is higher: 1.24 for the first, 1.19 for the second.

Going from G1A G36A to C10A G40U, the self-cleavage falls from 0.18 to 0.03.

Going from A4G A14U to G44C C46U, the self-cleavage falls from 0.24 to 0.14.

First: G35U U43G
Second: U9C C15G
The self-cleavage of the first is higher: 0.07 for the first, 0.04 for the second.

First: G27A G40A
Second: C13G G40A
The self-cleavage of the first is higher: 0.18 for the first, 0.13 for the second.

First: A6G A11C
Second: G7U A16C
The self-cleavage of the first is lower: 0.02 for the first, 0.09 for the second.

Going from A6C A11U to G19C G33C, the self-cleavage rises from 0.1 to 0.12.

First: C8U A14C
Second: U34C G35A
The self-cleavage of the first is higher: 0.15 for the first, 0.05 for the second.

First: A6U G22A
Second: G27U G35A
The self-cleavage of the first is higher: 0.57 for the first, 0.18 for the second.

Going from C18A C42G to A14U C42G, the self-cleavage rises from 0.04 to 0.1.

First: C18U C45G
Second: U9A G22A
The self-cleavage of the first is higher: 0.27 for the first, 0.14 for the second.

Going from G2U G21A to C13G G17C, the self-cleavage falls from 0.25 to 0.03.

First: C3U G33C
Second: C8A U20C
The self-cleavage of the first is lower: 0.07 for the first, 0.15 for the second.

Going from C3G A14G to G29C G33A, the self-cleavage falls from 1.31 to 0.12.

First: G1C G29A
Second: C15G A16C
The self-cleavage of the first is higher: 0.16 for the first, 0.11 for the second.

Going from A16U C42U to A14C U20G, the self-cleavage rises from 0.09 to 0.1.

Compared with G27U C31U, G17U C37A is lower in self-cleavage: 0.33 for the first, 0.1 for the second.

G21A G29U showed a self-cleavage of 2.19.

Source: the RNAGym collection of RNA variant scans (doi:10.7554/elife.90254)
